The nanobody polyreactivity screen of Harvey et al. (2022)

Test: yeast display, Sf9 membrane polyspecificity reagent, FACS + sequencing; frameworks hold sequencing errors
Outline: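 Nanobodies came from a synthetic yeast display library in Saccharomyces cerevisiae BJ5465, induced with galactose for 36–48 hours and stained for 1 hour at 4 °C with 10% biotinylated, detergent-solubilized Sf9 membrane reagent. Cells were enriched on streptavidin microbeads and then FACS-sorted, with low and high (top ~1%) gates set on anti-HA fluorescence for expression and streptavidin fluorescence for reagent binding. Each polyreactivity label reflects the gate a clone came from. Genes were amplified by colony PCR, sequenced by MiSeq 2 × 250 and filtered by CDR length.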

Sequence	polyreactivity (PSR sort gate)
QVQLVESGGGLVQAGGSLRLSCAASGRIFNSYAMGWYRQAPGKERELVAAISRNGGITYYADSVKGRFTISRDNAKNTVYLQMNSLKAEATAVYYCNADSSRRRYSSDYWGQGTQVTVSS	high polyreactivity
QVQLVESGGGLVQAGGSLRLSCAASGSTFCTYAMGWYRQAPGKERELVAAITQRGASTYYADSVKGRFTISRDNAKNTVYLQMNSLKPEDTAVYYCAAYKRGRPEMDYWGQGTQVSVSS	high polyreactivity
QVQLVESGGGLVQAGGSLRLSCAASGFTFTYYDMGWYRQAPGKERELDAAISWSGDYTYYADSVKGRFTISRDNAKNTVYLQMNSLKPEDTAVYYCAALWDVRGYWSSGGYYWGQGTQVTVSS	high polyreactivity
QVQLVESGGGLVQAGGSLRLSSAASGSTFDHYAMGWYRQAPGKERELVAAITWSGGRTYYADSVKGRFTISRDNAKNTVYFQMNSLKPEDTAVYYCAARGYQIRVANYKYDSWGQGTQVTVSS	low polyreactivity
QVQLVESGGGLVQAGGSLRFNCSASGSIFVRYTIGWYRQAPGKERELVAAISWGGGSTYYADSVKGRFTISRDNANNTVYLQMNSLKPEDTAVYYCNKRYIQLYDYWGQGTQVTVSS	low polyreactivity
QVQLVESGGGLVQAGGSLRLSCAASGRIFRYYAMGWYRQAPGKEREFVAAINSSGVNTYYADSVKGRFTISRDNAKNTVYLQMNSLKPEDTAVYYCAADWYQWGGRYYAPRYYYWGQGTQVTVSS	high polyreactivity
QDQLVDSGGGLVQAGGSLRLSCAASGRIFTINAMGWYRQAPGKERELVAAITYSGGSTYADSVKGRFTISRDNAKNTVYLQMNSLKPEDTAVYYCNAKLTWSRRYVRYNYWGQGTQVTVSS	high polyreactivity
QVQLVESGGGLVQAGGSLRLSCAASGFTFWRYAMGWYRQAPGKEREFVAVISISSGTTYADSVKGRFTITRDNAKNTVYLQMNSLKPEDTAVYYCAAAIGVYYIEYRYLGTVEYWGQGTQVTVSS	low polyreactivity
QVQLVESGGGLVQAGGSLRLSCAASGRTFLYNAMGWYRQAPGKERELVATITWSDDGTYYADSVKGRFTISRDNAKNTVYLQMNSLKPEDTAVYYCAAVYPRTRVKMDYWGQGTQVTVSS	low polyreactivity
QVQHVESGGGLVQAGGSLRLSCAASGLIFTKNAMGWCRQARGKEWELVAAISRGGGTPYYADSVKGRFTISRDHAKNTVYLQMNSLKPEDTAVYYCAAESYLQYPGAGDSWGQGTQVTVSS	high polyreactivity
QVQLVESGGCLVQAGGSLRLSCAASGSTFPAYAMGWYRPAPGKERELVAAISRSGGSTYYADSVKGRFTISRDNAKNTVYLQMNSLKPEDTAVYYCAARAAYSYDDGYWGQGTQVTVSS	high polyreactivity
QVQLVESGGGLVQAGGSLRLSCAAPGSTFVRYAMGWYRQAPGKERELVAAISKSGGSTYYADSVKGRFTISRDNAKNTVYLQMYSLKPEDTAVYYCAATTTRYSYEYWGQGTQVTVSS	low polyreactivity
QVQLVESGGGLVQAGGSLRLSCAASGRIFGPNAMGWYRQAPGKERELVAAISTSGGRTYYADSVKGRFTISRDNAKNTVYLQMNSLKPEDTAVYYCAADRSRWGQGTQVTVSS	high polyreactivity
QVHLVESGGGLVQAGGSLRLICAASGRTFWYYAMGWYRQAPGKERELVAAITSGGSTNYADSVKRRFTISRDNAKNTVYLQMNILKPEDTAVYYCATDNPVFEYDYCGQGTQVTVSS	low polyreactivity
QVQLVESGGGLVQAGGSLRLSCAASGIIFTFNAMGWYRQAPGKERELVASISITGDTYYADSVKGRFTISRDNAKNTVYLQMNSLKPEDTAVYYCAAEYYFYSRHWYISYDYWGQGTQVTVSS	low polyreactivity
QVQLLESGRGLVQAGGSLRLSCAASGRTFVGYAMVWYRKAHGKERELVAGITASGGTTYYADSVKGRFTISRDNAKNTVYLQMNSLKPEDTAVYYCATTTTRYRYKKNYYWGQGIQVTVSS	high polyreactivity

Sequence	polyreactivity (PSR sort gate)
QVQLVESGGGLVQAGGSLRLTCAASGYIFLQYAMGWYRPAPGKERELVAAITYNGGITYYADSVKGRFTISRDNAKNTVYLQRNSLKPEDTAVYYCAADKNQDVSYVGFDYWGQGTQVTVSS	low polyreactivity
QVQLVESGGGLVQAGGSLPLSCAASGSIFDLYTMGWYRQAPGKEREMVASISSSGGSTYYADSVKGRFTISRDNAKNTVYLQMNSLKPEDTAVYYCAAVASYHAYQYYYWGQGTQVTVSS	high polyreactivity
QVQHVESAGALVQAGGSLRLSCAASRRTFYRYPMGWYRQAPGKERELVAAISSNGGSTYYADSVKGRFTISRDNGKNTVYLQMNSLKPEDTAVYYCYYYNSRLFDYWGQGTQVTVSS	high polyreactivity
QVQLVESGGGLVQAGGSLRLSCAASGRTFSKYTMGRYRQAHGKEMEFGAAISYSGGSTYYADSVKGRFTISRDYAKKTVYLQMNSLKPEDTAVYYCAARASTYKYYYWGQGTQVTVSS	high polyreactivity
QVQLVESGGGLVQAGGGLRLSCAASGITFVDYDMGWYRQAPGKERELDAAITTGSSTYYADSVKGRFTISRDNAKNTVYLQMNSLKPEDTAVYYCARDFEYDYYQQWSYGYWGQGTQVTVSS	low polyreactivity
QVQLVESGGGLVQAGGSLRLSCAASGRTFRWYAMGWYRQAPGKERELVADISSVGSTDYADSVKGRFTISRDNAKNTVYLQMNSLKPEDTAVYYCAADFSPRRYHNRSFGYWGQGTQVTVSS	low polyreactivity
QVQLVESGGCLVQAGGTLRLSGAASGRTFRADGMGWCRQPPGKEWELVAVISWRDGSTFYADSVQGRFTISRDTAKNTVYLQMNSLKPEDTAVYYCNKASQLYYIQGTYSYGYWGQGTQVTVSS	low polyreactivity
QVQLVESGGGLVQEGGSLRLSCAASGITFKTYAMGWYRQAPGKESELVATINRGSRTNYADPVKGRFTISRDNAKNTVYLQMNSLKPEDTAVYYCAAHYTTFIPSPDGDYLGQGTQVTVSS	low polyreactivity
QVQLVESGGGVVQAGGSLRLRCAASGRTFGQNVMGWYRQAPGKERELVAAISWSGARTYYADSVKGRFTISRDNVKNTVYLQMNSLNPEDTAVYYCNAPPYAYYGMYYWGQGTQVTVSS	high polyreactivity
QVQLVESGGGLVQAGGSLRLSCAASGRTFWGYALGWYRQAPGKERELVAAISSGGETTYADSVKGRFTISRDNAKNTVYLQMNSMKPEDTAVYYCAADRWITVYILGADGYDYWGQGTQVTVSS	low polyreactivity
QVQLVESGGGLVQAGGSLRLSCAASGSIFRAYAMGGYRQAPGKERELVAAINWTDGSTYYAASVKGRFTISRDYAKNTVYLQMNSLKPEDTAVYYCAKDSMARHNYWGQGTQVTVSS	low polyreactivity
QVQLVESGGGLVQAGGSLRLSCAASGSTFTIYAMGWYRQAPGKERELVAAISSGGGDTDYADSVKGRFTISRDNAKNTVYLQMNSLKPEDTAVYYCNAEGTSPRTGYDYWGQGTQVTVSS	low polyreactivity
QVQLVESGGGLVQAGGSLRLSCAASGSTFTKYAMGWYRQAPGKERELVAAITASGGNTYYADSVKGRFTISRDNAKKTVYLQMNSLKPEDTAVYYCAARQYRYKYDYWGQGTQVTVSS	high polyreactivity
QVQLVESGGGLVQAGGSLRLSCAASGITFTSYAMGWYRQAPGKERELVAAISTRVGRTYYADSVKGRFTISRDNAKNTVYLQMNSLKPEDTAVYYCAADRISQGYSTYNYWGQGTQVTVSS	high polyreactivity
QVQLVESGGGLVQAGGSLRLSCAASGIIFYRYAMGWYRQAPGKERELVSAITWSGVSTSYADSVKGRFTISRDNAKNTVYLQMNSLKPEDTAVYYCAATNYGTFWGGQSERYDYWGQGTQVTVSS	low polyreactivity
QVQLVESGGGLVQAGGSLRLSCAASGLSSLRMLWDGLDRRLGKKGSWLPLITSGGDSTNYADSVKGRFTISRDNAKNTVYLQMNSLKPEDTAVYYCAADLDYPYGYWGQGTQVTVSS	low polyreactivity
